Where a chain is given by its changes, count along the chain named.
B1: SEQ ID NO: 439: GAT polypeptide (protein)
chain: MIEVKPINAEDTYELRHKILRPNQPIEACMYESDLLRGAFHLGGFYGGKLISIASFHQAEHSDLEGQKQYQLRGMATLEGYRDQKAGSTLIKHAEQLLRKRGADMLWCNARTSASGYYKKLGFSEQGEVFETPPVGPHILMYKKIT
modifications: 0_5B11
notes: GAT polypeptide
B2: SEQ ID NO: 440: GAT polypeptide (protein)
chain: B1 chain with I2L, K18R, S33T, G47R, D63E, E65Q, T89S, M105L, E131D, K144R
modifications: 0_5B3
notes: GAT polypeptide
B3: SEQ ID NO: 441: GAT polypeptide (protein)
chain: MLEVKLINAEDTYELRHRILRPNQPLEACMYETDLLRGAFHLGGFYRGKLISIASFHQAEHSDLEGQKQYQLRGMATLEGFRDQKAGSSLIKHAEEILRKRGANLLWCNARTSASGYYKKLGFSEQGEVFDTPPVGPHILMYKRIT
modifications: 0_5B4
notes: GAT polypeptide
B4: SEQ ID NO: 442: GAT polypeptide (protein)
chain: B1 chain with G47R, E65Q, T89S, K92R, L97I, M105L, V129I, E131D, K144R, I145L
modifications: 0_5B8
notes: GAT polypeptide
B5: SEQ ID NO: 443: GAT polypeptide (protein)
chain: MIEVKPINAEDTYELRHKILRPNQPLEACMYETDLLRGAFHLGGFYRGKLISIASFHQAEHSGLQGQKQYQLRGMATLEGYREQKAGSSIIKHAEEILRKKGADLLWCNARTSASGYYKKLGFSEQGEIFDTPPVGPHILMYKRIT
modifications: 0_5C4
notes: GAT polypeptide
B6: SEQ ID NO: 444: GAT polypeptide (protein)
chain: B1 chain with K18R, G47R, E65Q, D83E, K92R, M105L, K120R, E131D, K144R, I145L
modifications: 0_5D11
notes: GAT polypeptide
B7: SEQ ID NO: 446: GAT polypeptide (protein)
chain: MIEVKPINAEETYELRHRILRPNQPIEACMYETDLLRGAFHLGGFYRGKLISIASFHQAEHSELEGQKQYQLRGMATLEGYRDQKAGSSLIRHAEQLLRKKGANMLWCNARTTASGYYKKLGFSEQGEIFDTPPVGPHILMYKRIT
modifications: 0_5D7
notes: GAT polypeptide
B8: SEQ ID NO: 275: GAT polypeptide (protein)
chain: MIEVKPINAEDTYEIRHRILRPNQPLEACMYETDLLGGTLHLGGYYRGKLISIASFHQAEHPELEGQKQYQLRGMATLEEYREQKAGSTLIRHAEELLRKKGADLLWCNARTSASGYYKKLGFSEQGGVYDIPPVGPHILMYKKLT
modifications: 10_20D10
notes: GAT polypeptide
B9: SEQ ID NO: 447: GAT polypeptide (protein)
chain: B3 chain with L6P, L26I, T33S, F40L, E65Q, K92R, E96Q, N104D, E128K
modifications: 0_6B4
notes: GAT polypeptide
B10: SEQ ID NO: 449: GAT polypeptide (protein)
chain: B1 chain with K18R, F45Y, G47R, E65Q, Y81F, T89S, K92R, L97I, M105L, K144R
modifications: 0_6D11
notes: GAT polypeptide
B11: SEQ ID NO: 450: GAT polypeptide (protein)
chain: MIEVKPINAEDTYELRHRILRPNQPIEACMYESDLLRGAFHLGGYYRGKLISIASFHQAEHSELQGQKQYQLRGMATLEGFREQKAGSTLIRHAEQILRKRGADMLWCNARTSASGYYKKLGFSEQGEIFDTPPVGPHILMYKRIT
modifications: 0_6F2
notes: GAT polypeptide
B12: SEQ ID NO: 451: GAT polypeptide (protein)
chain: B5 chain with L26I, R47G, G63D, Q65E, S89T, I90L, K92R, D104N, I129V, I145L
modifications: 0_6H9
notes: GAT polypeptide
B13: SEQ ID NO: 452: GAT polypeptide (protein)
chain: B5 chain with A28V, F45X, G63E, E83D, I90L, E96Q, K101R, L105X, I145L
modifications: X: residue not identified in the source; ends and bridges not checked
notes: GAT polypeptide
B14: SEQ ID NO: 453: GAT polypeptide (protein)
chain: B11 chain with A28V, S33T, Y45F, E63D, F81Y, M105L, I129V
modifications: 10_4D5
notes: GAT polypeptide
B15: SEQ ID NO: 454: GAT polypeptide (protein)
chain: B11 chain with I2L, Y31F, Y45F, F81Y, T89S, Q96E, D131E, I145L
modifications: 10_4F2
notes: GAT polypeptide
B16: SEQ ID NO: 455: GAT polypeptide (protein)
chain: B11 chain with A28V, S33T, Y45F, T89S, M105L, I145L
modifications: 10_4F9
notes: GAT polypeptide
B17: SEQ ID NO: 456: GAT polypeptide (protein)
chain: B11 chain with Y31F, E63D, F81Y, E83D, T89S, M105L, I145L
modifications: 10_4G5
notes: GAT polypeptide
B18: SEQ ID NO: 276: GAT polypeptide (protein)
chain: B8 chain with L40F, I51V, E80G, G128E, I132T
modifications: 10_23F2
notes: GAT polypeptide
B19: SEQ ID NO: 458: GAT polypeptide (protein)
chain: B1 chain with A28V, G47R, S62P, E65Q, T89S, L97I, M105L, K144R, I145L
modifications: 11_3A11
notes: GAT polypeptide
B20: SEQ ID NO: 459: GAT polypeptide (protein)
chain: B11 chain with I2L, Y31F, S33T, Y45F, E63D, Q96E, M105L, K120R, I145L
modifications: 11_3B1
notes: GAT polypeptide
B21: SEQ ID NO: 460: GAT polypeptide (protein)
chain: B11 chain with Y31F, F81Y, E83D, T89S, I129V
modifications: 11_3B5
notes: GAT polypeptide

Assay: Standard protocol for determination of kcat and KM (continuous spectrophotometric assay, Acetyl CoA hydrolysis at 235 nm)
Assay type: biochemical
Conditions: purified protein; about 23° C.; 20 mM HEPES pH 6.8, 10% ethylene glycol, 0.2 mM acetyl CoA
Procedure, shortened: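 KM from initial rates over 0.125–10 mM glyphosate, fitted by Lineweaver-Burke transformation of Michaelis-Menten; kcat/KM computed as kcat divided by KM. Continuous spectrophotometric read of acetyl-CoA hydrolysis at 235 nm.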

| Molecule | Kcat |
| --- | --- |
| B1 | 3.65 s⁻¹ |
| B2 | 2.38 s⁻¹ |
| B3 | 3 s⁻¹ |
| B4 | 2.38 s⁻¹ |
| B5 | 3.42 s⁻¹ |
| B6 | 3.73 s⁻¹ |
| B7 | 4.07 s⁻¹ |
| B8 | 1.44 s⁻¹ |
| B9 | 4.2 s⁻¹ |
| B10 | 3.53 s⁻¹ |
| B11 | 2.92 s⁻¹ |
| B12 | 3.8 s⁻¹ |
| B13 | 1.16 s⁻¹ |
| B14 | 1.379 s⁻¹ |
| B15 | 3.8507 s⁻¹ |
| B16 | 0.9232 s⁻¹ |
| B17 | 2.9442 s⁻¹ |
| B18 | 1.688 s⁻¹ |
| B19 | 0.9277 s⁻¹ |
| B20 | 3.6662 s⁻¹ |
| B21 | 3.2435 s⁻¹ |

Same assay, conditions: purified protein; about 23° C.; pH 6.8; 0.2 mM acetyl CoA; glyphosate 0.125 to 10 mM

| Molecule | Km |
| --- | --- |
| B1 | 540 µM |
| B2 | 390 µM |
| B3 | 600 µM |
| B4 | 270 µM |
| B5 | 670 µM |
| B6 | 670 µM |
| B7 | 1100 µM |
| B8 | 1600 µM |
| B9 | 800 µM |
| B10 | 440 µM |
| B11 | 340 µM |
| B12 | 470 µM |
| B15 | 200 µM |
| B17 | 580 µM |
| B18 | 900 µM |
| B20 | 630 µM |
| B21 | 260 µM |

— patent US8008547B2, “Glyphosate-N-acetyltransferase (GAT) genes” (E.I. duPont de Nemours, priority 2000, dated 2011)
